Laboratory results: PMC6190850, “The RNA-Recognition Motifs of TAR DNA-Binding Protein 43 May Play a Role in the Aberrant Self-Assembly of the Protein”

Legend:
Details in all cases: protein: recombinant; tags: 6xHis-SUMO removed by TEV; single strand
TDP-43 RRM2 = TDP-43 RRM2 (UniProt Q13148 192-269); assay: BLI; no Kd could be determined, protein up to 15 uM; BLI (Octet RED), 10 mM potassium phosphate pH 7.2, 150 mM KCl, 0.05% Tween, 25 C; RNA on streptavidin sensors, protein 1 nM-15 uM
TDP-43 RRM1-2 = TDP-43 RRM1-2 (UniProt Q13148 102-269); assay: BLI; BLI (Octet RED), 10 mM potassium phosphate pH 7.2, 150 mM KCl, 0.05% Tween, 25 C; RNA on streptavidin sensors, protein 1 nM-15 uM
Sequence of TDP-43 RRM1-2 (Q13148 102-269): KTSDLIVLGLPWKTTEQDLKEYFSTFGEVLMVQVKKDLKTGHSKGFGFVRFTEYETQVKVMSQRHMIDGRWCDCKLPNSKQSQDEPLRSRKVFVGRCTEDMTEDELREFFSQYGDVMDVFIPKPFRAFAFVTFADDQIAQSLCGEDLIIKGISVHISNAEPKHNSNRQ

[1] = molecular target: TDP-43 RRM1 (with 15-aa C-terminal linker) (UniProt Q13148 102-191); assay: as above
Sequence of TDP-43 RRM1 (with 15-aa C-terminal linker) (Q13148 102-191): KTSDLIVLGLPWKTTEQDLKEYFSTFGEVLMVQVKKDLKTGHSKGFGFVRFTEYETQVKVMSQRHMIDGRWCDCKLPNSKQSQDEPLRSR

Sequence of TDP-43 RRM2 (Q13148 192-269): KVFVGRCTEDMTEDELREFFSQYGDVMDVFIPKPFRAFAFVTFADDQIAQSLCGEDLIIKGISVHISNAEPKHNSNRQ

| Binder | binding result (TDP-43 RRM2) | Kd (TDP-43 RRM1-2) | Kd [1] |
| --- | --- | --- | --- |
| AUUCAUUCACAC (ssRNA) [NegAUG12] | no binding | 2.6 ± 0.6 µM | 2.55 ± 0.48 µM |
| GUGUGAAUGAAU (ssRNA) [AUG12] | – | 0.0039 µM | 0.48 ± 0.09 µM |
